In this assay the target is T1, CD44 (isoform 4), Fc-fused (Homo sapiens, UniProt P16070-4, strain).
T1 construct: printed MW 94.4 kDa; Fc-fused, dimeric presentation; For selections, ELISA and HTRF it was chemically biotinylated by amine coupling; also called CD44iso4; CD44iso4-Fc fusion construct; source: bought: Promab Biotechnologies, produced in HEK293 cells; not shown: Fc (IgG1), C-terminal, kept
In words: SPR; single cycle kinetics; purified IgG4 captured by an immobilised anti-Fab antibody on a CM5 chip; CD44iso4 (Fc-fused, dimeric) injected in five concentrations between 80 and 0.3 nM; HBS with 0.05% Tween20, pH 7.5; 1:1 model; apparent (possible avidity from the dimeric target). Particulars: both partners purified.

B1: BIWA4 (bivatuzumab), as human IgG4 (antibody, V domains shown)
VH: EVQLVESGGGLVKPGGSLRLSCAASGFTFSSYDMSWVRQAPGKGLEWVSTISSGGSYTYYLDSIKGRFTISRDNAKNSLYLQMNSLRAEDTAVYYCARQGLDYWGRGTLVTVSS
VL: EIVLTQSPATLSLSPGERATLSCSASSSINYIYWYQQKPGQAPRLLIYLTSNLASGVPARFSGSGSGTDFTLTISSLEPEDFAVYYCLQWSSNPLTFGGGTKVEIK
notes: VH of BIWA4; human IgG4 heavy chain constant region from the in-house vector pHAT-hIgG4, with the hinge-stabilising S228P substitution; numbers count on: EU numbering; VL of BIWA4; light chain constant region of the vector pHAT-hIgG4; also called positive control; source: expiHEK293 cells, transfected, purified (Protein A beads)
For B1, the binding result is “binds”.

Values taken from article PMC10673843, “Selection, characterization and in vivo evaluation of novel CD44v6-targeting antibodies for targeted molecular radiotherapy” (Scientific Reports, 2023).
